Biological target: 40 S ribosomal subunit, wild type (RDN+) (S. cerevisiae (endogenous in NOY908)) (UniProt P32905)
Assay: co-sedimentation

Sequence of UniProt P32905 (P32905 whole entry, looked up, tested part not stated): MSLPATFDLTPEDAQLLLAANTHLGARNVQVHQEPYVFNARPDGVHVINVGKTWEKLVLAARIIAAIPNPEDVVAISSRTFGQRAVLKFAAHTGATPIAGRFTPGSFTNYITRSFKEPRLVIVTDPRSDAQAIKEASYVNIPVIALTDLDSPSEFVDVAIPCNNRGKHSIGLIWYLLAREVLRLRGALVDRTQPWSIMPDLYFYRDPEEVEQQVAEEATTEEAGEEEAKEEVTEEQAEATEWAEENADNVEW

Row | percent of the factor loaded on free 40 S subunits [%] | Substance
1 | < 5 | eIF2 (heterotrimeric factor) (from UniProt P20459 1-304; P09064 1-285; P32481 1-527) (complex)
2 | < 5 | eIF3 (from UniProt P38249 1-964; Q04067 1-274) (complex)
3 | < 5 | eIF5 (from UniProt P38431 1-405) (natural protein)
